This note sets out measurements from the nanobody polyreactivity screen of Harvey et al. (2022).

This data set is described as follows: yeast display, Sf9 membrane polyspecificity reagent, FACS + sequencing; frameworks hold sequencing errors. In outline:
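Genes from sorted yeast were amplified by colony PCR, read by MiSeq 2 × 250 sequencing and filtered on CDR length. These cells carried a synthetic nanobody library in Saccharomyces cerevisiae BJ5465 and were sorted by FACS into low and high (top ~1%) gates on anti-HA and streptavidin fluorescence. Polyreactivity is labelled according to the gate of origin.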
As for “QVQLVESGGGLVQAGGSLRLSCAASGRIFYGYAMGWYIQAPGKERELVAAITYIGGTYYADSVKGRFTISRDNAKNTVYLQMNSQKPEDTSVYYCASEPFYNFVYYTYPYWYDYWGQGTQVTVSS”, the “polyreactivity (PSR sort gate)” value is on record as “low polyreactivity”.

With “QVQLVESGGGLVQAGGSLRLSCAASGRIFYGYAMGWYRQAPGKERELVAAISRGGTRTFYADSVKGRFTISRDNAKNTVYLQMNSLKPEDTAVYYCAADPGPHRYSYDYWGQGTQVTVSS”, the “polyreactivity (PSR sort gate)” value was “high polyreactivity”.

For “QVQLVESGGGLVQAGGSLRLSCAASGRIFYGYAMGWYRQAPGKERELVAAISSGGITYYADSVKGRFTISRDNAKNTVYLQMNSLKPEDTAVYYCAATVLGDYEYWGQGTQVTVSS”, the “polyreactivity (PSR sort gate)” value is on record as “low polyreactivity”.

Regarding “QVQLVESGGGLVQAGGSLRLSCAASGRIFYGYAMGWYRQAPGKERELVAASRYSGGSTYADSVKGRFTISRDNAKNTVFLQMNSLKPEVTAVYYCAAGDAPYVAWDQYQDNVFRYDYWGQGTQVTVSS”, the “polyreactivity (PSR sort gate)” value was “low polyreactivity”.

As to “QVQLVESGGGLVQAGGSLRLSCAASGRIFYGYAMGWYSQAPGKEREVVATITGIGGSTYADSVKGRFTISRDHAKNTVYLQMNSLKPEDTAVYYCNAERGVYWGRYPYKYDYWGQGTQVTVSS”, the “polyreactivity (PSR sort gate)” value is listed as “low polyreactivity”.

Regarding “QVQLVESGGGLVQAGGSLRLSCAASGRIFYGYTMGWYRQAPGKERELVAAISSSGGSTYYADSVKGRFTISRDNAKNTVYLQMNSLIPEDTAVYYCAAYVPYSPYHVEFNYWGQGTQVTVSS”, the “polyreactivity (PSR sort gate)” value is “high polyreactivity”.

With “QVQLVESGGGLVQAGGSLRLSCAASGRIFYGYTMGWYRQAPGKERELVADISWRGGSTSYADSVKGRFTISRDNAKNTVYLQMNSLKPEDTAVYYCAKRYRPESLYPFYNPYDYWGQGTQVTVSS”, the “polyreactivity (PSR sort gate)” value is “low polyreactivity”.

Turning to “QVQLVESGGGLVQAGGSLRLSCAASGRIFYGYVMGWYRQAPGKERELVAAITWSGSRTYYADSVKGRFTISRDNAKNTVYLQMNSLKPEDTAVYYCAARIPSDGYYYWGQGTQVTVSS”, the “polyreactivity (PSR sort gate)” value is “high polyreactivity”.

Regarding “QVQLVESGGGLVQAGGSLRLSCAASGRIFYINAMGWSRQAPGKERELVAAITEGGVSTYYADSVKGRFTISRDNAKNTVYLQMNSLKPEDTAVYYCNTTGGPDGIVIYEYWGQGTQVTVSS”, the “polyreactivity (PSR sort gate)” value is listed as “low polyreactivity”.

Regarding “QVQLVESGGGLVQAGGSLRLSCAASGRIFYINAMGWYRQAPGKERELVAAITEGGVSTYYADSVKGRFTISRDNAKNTVYLQMNSLKPEDTAVYYCNTTGGPDGIVIYEYWGQGTQVTVSS”, the “polyreactivity (PSR sort gate)” value was “low polyreactivity”.

As to “QVQLVESGGGLVQAGGSLRLSCAASGRIFYINAMGWYRQAPGKERELVASITGSGGRTYYADSVKGRFTISRDNAKNTVYLQMNSLKPEDTAVYYCNADLYVGYLYYLYDYWGQGTQVSVSS”, the “polyreactivity (PSR sort gate)” value is listed as “low polyreactivity”.

For the sequence “QVQLVESGGGLVQAGGSLRLSCAASGRIFYINTMGWYRQAPGKERELVAAISRRGGSTYYADSVKGRFTISRDNAKNTVYLQMNSLKPEDTAVYYCAARDQYGPGYRSESLDSWGQGTQVTVSS”, the “polyreactivity (PSR sort gate)” value was “low polyreactivity”.

Consider “QVQLVESGGGLVQAGGSLRLSCAASGRIFYIYAMGWYRQAPGKERELVAAISTGGGGTYYADSVKGRFTISRDNAKNTVYLQMNSLKPEDTAVYYCAVDSKPRYREFDYWGQGTQVTVSS”, for which the “polyreactivity (PSR sort gate)” value was “high polyreactivity”.

“QVQLVESGGGLVQAGGSLRLSCAASGRIFYIYAMGWYRQAPGKERELVATISVSGGRTYYADSVKGRFTISRDNAKNTVYLHMNSLKPEDTAVYYCAKEGRFNIHKWYDYWGQGTQVTVSS”: the “polyreactivity (PSR sort gate)” value was “low polyreactivity”.

In the case of “QVQLVESGGGLVQAGGSLRLSCAASGRIFYIYTMGWYILAPGKERELVAGITRAGSTNYADSVKGRFTISRDNAKNTVYLQMNSLKPEDTAVYYSNAYIWIYGFDYCGQGTQVTVSS”, the “polyreactivity (PSR sort gate)” value is given as “high polyreactivity”.

With “QVQLVESGGGLVQAGGSLRLSCAASGRIFYKNVMGWYRPAPGKERELVATITRRGGRTFYADSVKGRFTISRDNAKNTVYLQMNSLKPEDTAVYFCNVLPQPGKESTGDDYWGQGTQVTVSS”, the “polyreactivity (PSR sort gate)” value is reported as “high polyreactivity”.

On to “QVQLVESGGGLVQAGGSLRLSCAASGRIFYKSAMGWSRQAPGKEREWVAAITTSGGSTYYADSVKGRFTISRDNAKNTVYLQMNSLKPEDTAVYYCAARSAYGTQRLYYWGQGTQVTVSS”, for which the “polyreactivity (PSR sort gate)” value was “high polyreactivity”.

Turning to “QVQLVESGGGLVQAGGSLRLSCAASGRIFYKYAMGWYRQAPGKERELVAGITRSGANTYYADSVKGRFTISRDNAKNTVYLQMNSLKPEDTAVYYCAVYIPRGGRSGYWGQGTQVTVSS”, the “polyreactivity (PSR sort gate)” value is “high polyreactivity”.

“QVQLVESGGGLVQAGGSLRLSCAASGRIFYLNAMGWYRQAPGKERELVAAMSGSTGSTYYADSVKGRFTISRDNAKNTVYLQMNSLKPEDTAVYYCNAVLSSNTKWRYPGDYWGQGTQVTVSS”: the “polyreactivity (PSR sort gate)” value is given as “low polyreactivity”.

Regarding “QVQLVESGGGLVQAGGSLRLSCAASGRIFYLNDMGWYRQAPGKERELVATITSTGGSTYYADSVKGRFTISRDNAKNTVYLQMNSLKPEDTAVYYCAAGGWRAYSYTARYDYWGQGTQVTVSS”, the “polyreactivity (PSR sort gate)” value was “low polyreactivity”.

For the sequence “QVQLVESGGGLVQAGGSLRLSCAASGRIFYLNVMGWYRQAPGKERELVAAITRRDVTTYADSVKGRFTISRDNAKNTVYLQMNSLKPEDTAVYYCNAVYYNRIGFDYWGQVTQVTVSS”, the “polyreactivity (PSR sort gate)” value was “low polyreactivity”.

On to “QVQLVESGGGLVQAGGSLRLSCAASGRIFYLYAMGWYRQAHGKERELVATINTSGGITYYADSVKGRFTISLDNAKNTVYLQLNSLIPEDTAVYYCNADWEWQYFYFRPGGYWGQGTQETVSS”, for which the “polyreactivity (PSR sort gate)” value is “low polyreactivity”.

In the case of “QVQLVESGGGLVQAGGSLRLSCAASGRIFYLYAMGWYRQAPGKERELVAAITGGGSTSYADSVKGRFTISRDNAKNTVYLQMNSLKPEDTAVYYCATDRLTYTKYGYWGQGTQVTVSS”, the “polyreactivity (PSR sort gate)” value is on record as “low polyreactivity”.

Turning to “QVQLVESGGGLVQAGGSLRLSCAASGRIFYNYAMGWYRQAPGKERELVAAITRRAGRTYYADSVKGRFTISRDNSKNTVYLQMNSLKPEDTAVYYCAKDEPGSSRVLYDSWGQGTQVTVSS”, the “polyreactivity (PSR sort gate)” value is “low polyreactivity”.

Turning to “QVQLVESGGGLVQAGGSLRLSCAASGRIFYNYAMGWYRQAPGKERELVASISNSGGSTYYADSVKGRFTISRDNAKNTVYLQMNSLKPEDTAVYYCARRYYYYTTYRYDYWGQGTQVSVSS”, the “polyreactivity (PSR sort gate)” value was “high polyreactivity”.

Consider “QVQLVESGGGLVQAGGSLRLSCAASGRIFYPNAMGWYRQAPGKERELVAAITSGGRTYYADSVKGRFTISRDNAKNTVYLQMNSLKPEDTAVYYCNARYSFWRSGPGYQGVDYWGQGTQVTVSS”, for which the “polyreactivity (PSR sort gate)” value is given as “high polyreactivity”.

Take “QVQLVESGGGLVQAGGSLRLSCAASGRIFYPYAMGWYRQAPGKEREFVATITASGGSTYYADSVKGRVTISRDNAKNTVYFQMNSLKPEDTAVYYCAADDPGYYQVEYWGQGTQVTVSS”: the “polyreactivity (PSR sort gate)” value was “high polyreactivity”.

On to “QVQLVESGGGLVQAGGSLRLSCAASGRIFYPYAMGWYRQAPGKERELVAAIRGGDSTNYADSVKGRFTISRDNAKNTVYLQMNSLKPEDTAVYYCAAVLRYVVRPYSYWSGGYDYWGQGTQVTVSS”, for which the “polyreactivity (PSR sort gate)” value was “high polyreactivity”.

“QVQLVESGGGLVQAGGSLRLSCAASGRIFYPYAMGWYRQAPGKERELVAAISARGGSTYYADSVKGRFTISRDNAKNTVYLQMNSLKPEDTAVYYCATYTYRGVAEMDYWGQGTQVTVSS”: the “polyreactivity (PSR sort gate)” value is given as “high polyreactivity”.

As for “QVQLVESGGGLVQAGGSLRLSCAASGRIFYPYAMGWYRQAPGKERELVASITSGGGTYYADSVKGRFTISRDNAKNTVYLQMNSLKPEDTAVYYCAAKYYTSWIRYDYWGQGTQVTVSS”, the “polyreactivity (PSR sort gate)” value is on record as “low polyreactivity”.

As to “QVQLVESGGGLVQAGGSLRLSCAASGRIFYRNAKGWYRQATGKERALVASITSGGRTNYADSVKGRFTISRDNAKNTVYLQMNSLKPEDTAVYYCAAPPPYSVRTFRFYYWGQGTQVTVSS”, the “polyreactivity (PSR sort gate)” value is listed as “high polyreactivity”.

For the sequence “QVQLVESGGGLVQAGGSLRLSCAASGRIFYRNAMGRYRQAPGKERELVAAISSSGGRTYYADSVKGRFTISRDNAKITVYFQMNSLKPEDTAVYYCNRAYYLDSGYDSWGQGTQVTVSS”, the “polyreactivity (PSR sort gate)” value is “high polyreactivity”.

As for “QVQLVESGGGLVQAGGSLRLSCAASGRIFYRNAMGWSRQAPGKERELVASITSAGRTYYADSVKGRFTISRDNAKNTVYLQMNSLKPEDTAVYYCAVRVAVLLNLYGYWGQGTQVTVSS”, the “polyreactivity (PSR sort gate)” value is on record as “low polyreactivity”.

For the sequence “QVQLVESGGGLVQAGGSLRLSCAASGRIFYRNAMGWYRQAPGKERELVAAISSGSGTYYADSVKGRFTISRDNAKNTVYLQMNSLKPEDTAVYYCAARARSRDYYWGQGTQVTVSS”, the “polyreactivity (PSR sort gate)” value is recorded as “high polyreactivity”.

On to “QVQLVESGGGLVQAGGSLRLSCAASGRIFYRNVMGWNRQAPGKERELVAAITYRTGSTYYADSVKGRFTISRDNAKNTVYLQMNSLKPEDTAVYYCNVVPRNGQTWGYEYDYWGQGTQVTVSS”, for which the “polyreactivity (PSR sort gate)” value was “high polyreactivity”.

For “QVQLVESGGGLVQAGGSLRLSCAASGRIFYRYAMGWYRQAPGKEREFVAAISRSGTTTYYADSVKGRFTISRDNAKNTVYLQMNSLKPEDTAVYYCAVGYRGWDGYWGQGTQVTVSS”, the “polyreactivity (PSR sort gate)” value is listed as “high polyreactivity”.

For the sequence “QVQLVESGGGLVQAGGSLRLSCAASGRIFYRYAMGWYRQAPGKERELVAAISGRGGSTYYADSVKGRFTISRDNAKNTVYLQMNSLKPEDTAVYYCNALPVYRSLAYEVDYWGQGTQVTVSS”, the “polyreactivity (PSR sort gate)” value is given as “high polyreactivity”.

As to “QVQLVESGGGLVQAGGSLRLSCAASGRIFYRYAMGWYRQAPGKERELVASITGRGGRTYYADSVKGRFTISRDNAKNSVYLHMNSLKPEDTEVYYCAADWGVHRPPYDSWGQGTQVTVSS”, the “polyreactivity (PSR sort gate)” value is on record as “high polyreactivity”.

As for “QVQLVESGGGLVQAGGSLRLSCAASGRIFYRYARGWYRQAPGKEREFVAAISGTGGSTYYADSVKGRFTISRDNAKNTVYLQMNSLKPEDTAVYYCAAFSYYSSGYDYWGQGTQVTVSS”, the “polyreactivity (PSR sort gate)” value was “high polyreactivity”.

With “QVQLVESGGGLVQAGGSLRLSCAASGRIFYRYTMGWYRQAPGKERELVAAITRGGNTYYADSVKGRFTISRDNAKNTVYLQMNSLKPEDTAVYYCAKKAPSDRNNYWGQGTQVTVSS”, the “polyreactivity (PSR sort gate)” value is given as “high polyreactivity”.

Turning to “QVQLVESGGGLVQAGGSLRLSCAASGRIFYSNAMGWYRQAPGKERELVAASRWSGTRTSYADSVKGRFTISRDNAKNTVYLQMNSLKPEDTAVYYCAAAGWYHSYWGQGTQVTVSS”, the “polyreactivity (PSR sort gate)” value is “high polyreactivity”.
